Measured values reported in the supplement of paper PMC10567573.
± gives the standard deviation.

Assay: protein stability index of a GFP-peptide fusion (GPS, HEK-293T) (PSI 1-6); higher = more stable
Settings: c terminus: a fixed tail appended
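Note: 24-mer peptide tiles fused after GFP, lentivirally expressed, FACS-sorted into six equal bins by GFP/DsRed ratio, decoded by Illumina sequencing, PSI is the read-weighted mean bin number.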

Sequence | protein stability index (treatment: DMSO) | protein stability index (treatment: MLN4924 1 uM, 8 h)
NFSTFIKCIFTQFRIILGDFDYNA [PKD2L1] | 2.98 ± 0.36 | 2.94 ± 0.41
NGGMATTSAEIELPDVEPAAFLAL [BTBD1] | 3.86 ± 0.25 | 4.02 ± 0.22
NGLEDIDRILERIEDSTGLNRPGP [TCF25] | 4.48 ± 0.21 | 4.75 ± 0.21
NGSGDMIFEGNSEKEIPVLNELPV [CPXM2] | 4.79 ± 0.34 | 5.01 ± 0.25
NKKYYKKFSIPDLDRHQLPLDDAL [DPCD] | 3.46 ± 0.13 | 3.55 ± 0.26
NKLALQYGCKVADIKKVNNFIREQ [LYSMD4] | 2.25 ± 0.22 | 2.38 ± 0.42
NLLLTYLIVTSLLLLPGLNQHGII [ARL6IP1] | 3.32 ± 0.47 | 3.25 ± 0.13
NLLSIALYLLSGSIIAVAMQRGAR [POMT2] | 3.2 ± 0.36 | 3.34 ± 0.13
NLYVFGGYNPDYDESGGPDNEDYP [KLHDC10] | 3.9 ± 0.28 | 4.09 ± 0.22
NMCLVATGGADAYYEMGIHCWDVA [IMPA1] | 2.13 ± 0.23 | 2.3 ± 0.18
NNIMKCRSRYDGHRIWMYNCHIGG [LOXL2] | 2.5 ± 0.69 | 2.33 ± 0.42
NPIQKEEDEGVDLSEGSSNEDEDL [SPANXN3] | 4.96 ± 0.43 | 4.95 ± 0.39
NPPAQPAPNAWQVIKGVLFRIFII [CLPTM1] | 1.9 ± 0.18 | 2.09 ± 0.15
NPTSAPGSRLAEFGAAGVNRLSIG [RSAD1] | 3.87 ± 0.072 | 3.64 ± 0.28
NQQIHEQEKKILELEKLAEKNIIL [MTUS2] | 4.13 ± 0.18 | 4.25 ± 0.17
NRIGNSGVEEIKGHPFFEGVDWEH [STK38L] | 4.32 ± 0.26 | 4.45 ± 0.21
NSCINPIALYFVSKKFKNCFQSCL [EDNRA] | 3.27 ± 0.34 | –
NSGLINHQRIHTGEKPYECVQCGK [ZNF24] | 3.92 ± 0.17 | 3.99 ± 0.31
NSLDTTSWAWRGPGVLKVLWLTAS [LPCAT4] | 2.43 ± 0.62 | 2.25 ± 0.47
NSSQSSSDGSCKTAGEMVFVYENA [BTBD10] | 4.22 ± 0.3 | 4.15 ± 0.22
NTSLHVFVLDENDNAPAVLHPRPD [PCDHGC5] | 3.49 ± 0.27 | 3.51 ± 0.2
NVLKSYIGLGHIYSGTFALIGAAA [CLCN6] | 3.63 ± 0.91 | 3.04 ± 0.32

Sequence | protein stability index (treatment: DMSO) | protein stability index (treatment: MLN4924 1 uM, 8 h)
NYFSAMYSSEDSTLASVPPAATFG [ELF3] | 3.06 ± 0.3 | 3.17 ± 0.43
NYRIMSYFKEAELKDLLLQVGRGL [WEE1] | 2.46 ± 0.87 | 2.15 ± 0.4
PAATMAVELHYEEGSPRNLGTPTS [C2CD2L] | 4.4 ± 0.17 | 4.52 ± 0.2
PAGAEYCSSARHPAWGHCFYRLYQ [SCNN1D] | 2.08 ± 0.38 | 2.68 ± 0.35
PAIIFEDANLDECIPATVRSSFAN [ALDH8A1] | 3.69 ± 0.15 | 3.72 ± 0.2
PASTPSVLSSEQEFQMFPKSRLSS [ETS2] | 4.57 ± 0.21 | 4.57 ± 0.24
PDPPVNFLRQKVLSLPLPDPLKYY [PCMTD2] | 2.85 ± 0.13 | 2.93 ± 0.079
PDSHQKRPQHSHSNKKRPSLDGRD [ELOA2] | 5.33 ± 0.17 | 5.14 ± 0.21
PEKEYQRQVWLLFEYPESSGPARV [KCNA1] | 2.59 ± 0.29 | 2.06 ± 0.33
PEKRTQYFDPLRNEYFFDRNRPSF [KCNA4] | 2.74 ± 0.25 | 3.03 ± 0.13
PESQFPEFSTSLFSGSLEPVACGS [SRPK2] | 4.21 ± 0.26 | 4.29 ± 0.064
PFHDSDPSALFSKIRRGQFCIPEH [TRIB1] | 3.13 ± 0.25 | 3.12 ± 0.44
PGFSTLSLADQMSLLQSAWMEILI [ESRRG] | 2.27 ± 0.88 | 2.29 ± 0.4
PGRSSVASPRRLSNVSSSGSINLL [MAP2] | 3.63 ± 0.16 | 3.48 ± 0.16
PHWLDKWMLTRKQFGLLSFFFAVL [STEAP1] | 2.27 ± 0.28 | 2.26 ± 0.38
PIMAKEGQLYAMELQGFWMDIGQP [GMPPB] | 2.23 ± 0.25 | 2.14 ± 0.31
PKEPAPPNGSAAEPPTEAASREEN [PALM] | 5.57 ± 0.25 | 5.37 ± 0.43
PKGLDDESKDYLSLYLLLVSCPKS [SPOPL] | 2.34 ± 0.38 | 2.95 ± 0.69
PLFMAAFDGRHSQTLKAMVQAWPF [PRAME] | 2.16 ± 0.13 | 2.07 ± 0.31
PLSDKGTTPLQLAIIRERSSCVKI [ASB7] | 2.64 ± 0.22 | 2.81 ± 0.4
PLTEQEESSPSHDRSRTVSASSTG [SRPK2] | 5.25 ± 0.28 | 5.51 ± 0.23
PLTLQSQPKEPQLTCDSAQKCHSI [ZSCAN9] | 4.36 ± 0.29 | 4.39 ± 0.15

Sequence | protein stability index (treatment: DMSO) | protein stability index (treatment: MLN4924 1 uM, 8 h)
PLVKKHCDDSFTPQEKLWQQLRRG [CPOX] | 3.49 ± 0.21 | 3.57 ± 0.2
PLWQCYLGRFNDINVPIRLECVKF [PDS5B] | 2.46 ± 0.54 | 2.35 ± 0.28
PNFVKDLEEDLYELFKKDPGFDRG [PI4K2A] | 3.79 ± 0.081 | 3.72 ± 0.32
PNVLCSMSGKSPVESSLNVKTKKN [FBXO34] | 4.84 ± 0.29 | 4.9 ± 0.1
PPATLGEGSADTEDRKLPAPGADV [EHMT1] | 5.47 ± 0.3 | 5.58 ± 0.13
PPLWAASAAGHLKVVQSLLNHGAS [FEM1C] | 2.58 ± 0.43 | 2.76 ± 0.23
PPQPGCPAFIIVKLSPLRDRLVVT [ZSWIM9] | 2.93 ± 1 | 2.99 ± 0.94
PPTPGRPSLGPALSTGPRGLCAMP [VENTX] | 3.86 ± 0.37 | 3.73 ± 0.26
PQLKKESELPFVPNYLANPAFPFI [ANKRD40] | 2.82 ± 0.34 | 2.87 ± 0.085
PRESTDFSSSSQEAFAASAVGSGE [ZBTB22] | 5.22 ± 0.26 | 5.31 ± 0.27
PRIEASKVLLCHGELRSKSGHKLY [NET1] | 2.64 ± 0.46 | 2.81 ± 0.34
PRLSQLSVTDVTTSSLRLNWEAPP [TNXB] | 3.5 ± 0.4 | –
PRRKKLKSTSKYIYQTLFLNGENS [GMCL1] | 2.69 ± 0.17 | 2.79 ± 0.16
PSITRKRRYVASVSLHDRIYVIGG [KLHL12] | 2.24 ± 0.26 | 2.13 ± 0.4
PSLEAGNPAPAAPCPLGEPKTQAC [MYCL] | 5.26 ± 0.14 | 5.32 ± 0.11
PSRVHASEVESAVWYVKKFGRYLE [FBXO39] | 2.42 ± 0.16 | 2.27 ± 0.5
PSSGPVTPQPTALTFAKSSWARQE [AUP1] | 4.2 ± 0.29 | 4.27 ± 0.24
PTGPRRGRDELGGGRRPGTSPALL [CDKN1A] | 4.624 ± 0.031 | 4.53 ± 0.061
PTPPGQYFYPRGGGSGGGAGGAGG [JUNB] | 4.81 ± 0.15 | 4.5 ± 0.16
PTPQVDELDILPIHPPSGNSDLDP [BTBD10] | 5.54 ± 0.097 | 5.39 ± 0.35
PVDLNKILEDMRCQYEALVENNRR [KRT36] | 3.31 ± 0.3 | 3.23 ± 0.36
